Results: article PMC10397247
Values belong to the binder of their own block, whether it stands above or below them.

Tests used:
4H2903-AA = molecular target: T1, 4H2903-AA; test: two-hybrid library CCmax; conditions: mean of both orientations;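 also: natural log of median RNA to DNA barcode read ratio; higher means stronger binding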
T1 chain: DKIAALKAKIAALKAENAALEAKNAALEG

4H464-AA = molecular target: T2, 4H464-AA; test: two-hybrid library CCmax; conditions: mean of both orientations;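 also: natural log of median RNA to DNA barcode read ratio; higher means stronger binding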
T2 chain: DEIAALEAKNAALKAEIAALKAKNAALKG

4H1558-AA = molecular target: T3, 4H1558-AA; test: two-hybrid library CCmax; conditions: mean of both orientations;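 also: natural log of median RNA to DNA barcode read ratio; higher means stronger binding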
T3 chain: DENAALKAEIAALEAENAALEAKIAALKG

4H63-AA = molecular target: T4, 4H63-AA; test: two-hybrid library CCmax; conditions: mean of both orientations;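 also: natural log of median RNA to DNA barcode read ratio; higher means stronger binding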
T4 chain: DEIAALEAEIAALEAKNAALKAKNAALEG

4H3049-AA = molecular target: T5, 4H3049-AA; test: two-hybrid library CCmax; conditions: mean of both orientations;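 also: natural log of median RNA to DNA barcode read ratio; higher means stronger binding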
T5 chain: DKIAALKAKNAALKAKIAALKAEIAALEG

4H2961-AA = molecular target: T6, 4H2961-AA; test: two-hybrid library CCmax; conditions: mean of both orientations;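 also: natural log of median RNA to DNA barcode read ratio; higher means stronger binding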
T6 chain: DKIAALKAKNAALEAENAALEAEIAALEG

4H446-AA = molecular target: T7, 4H446-AA; test: two-hybrid library CCmax; conditions: mean of both orientations
T7 chain: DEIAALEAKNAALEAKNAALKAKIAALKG

4H3414-AA = molecular target: T8, 4H3414-AA; test: two-hybrid library CCmax; conditions: mean of both orientations
T8 chain: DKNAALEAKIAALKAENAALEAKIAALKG

4H1454-AA = molecular target: T9, 4H1454-AA; test: two-hybrid library CCmax
T9 chain: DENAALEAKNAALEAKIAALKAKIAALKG

4H2774-AA = molecular target: T10, 4H2774-AA; test: two-hybrid library CCmax; conditions: mean of both orientations
T10 chain: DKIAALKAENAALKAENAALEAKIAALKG

4H2728-AA = molecular target: T11, 4H2728-AA; test: two-hybrid library CCmax; conditions: mean of both orientations
T11 chain: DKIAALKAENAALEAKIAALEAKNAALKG

4H2621-AA = molecular target: T12, 4H2621-AA; test: two-hybrid library CCmax; conditions: mean of both orientations
T12 chain: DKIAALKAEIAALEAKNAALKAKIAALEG

4H3595-AA = molecular target: T13, 4H3595-AA; test: two-hybrid library CCmax; conditions: mean of both orientations
T13 chain: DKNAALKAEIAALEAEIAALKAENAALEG

4H483-AA = molecular target: T14, 4H483-AA; test: two-hybrid library CCmax; conditions: mean of both orientations
T14 chain: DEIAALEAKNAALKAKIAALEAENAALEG

4H3969-AA = molecular target: T15, 4H3969-AA; test: two-hybrid library CCmax; conditions: mean of both orientations
T15 chain: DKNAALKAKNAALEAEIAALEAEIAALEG

4H341-AA = molecular target: T16, 4H341-AA; test: two-hybrid library CCmax; conditions: mean of both orientations
T16 chain: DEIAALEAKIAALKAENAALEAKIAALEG

4H380-AA = molecular target: T17, 4H380-AA; test: two-hybrid library CCmax; conditions: mean of both orientations
T17 chain: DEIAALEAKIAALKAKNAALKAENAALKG

4H2699-AA = molecular target: T18, 4H2699-AA; test: two-hybrid library CCmax; conditions: mean of both orientations
T18 chain: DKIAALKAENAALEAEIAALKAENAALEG

4H3939-AA = molecular target: T19, 4H3939-AA; test: two-hybrid library CCmax; conditions: mean of both orientations
T19 chain: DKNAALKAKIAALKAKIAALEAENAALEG

4H2580-AA = molecular target: T20, 4H2580-AA; test: two-hybrid library CCmax; conditions: mean of both orientations
T20 chain: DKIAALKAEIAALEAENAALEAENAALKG

4H249-AA = molecular target: T21, 4H249-AA; test: two-hybrid library CCmax; conditions: mean of both orientations
T21 chain: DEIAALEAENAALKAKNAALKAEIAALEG

4H3629-AA = molecular target: T22, 4H3629-AA; test: two-hybrid library CCmax; conditions: mean of both orientations
T22 chain: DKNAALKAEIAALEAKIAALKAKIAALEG

4H3129-AA = molecular target: T23, 4H3129-AA; test: two-hybrid library CCmax; conditions: mean of both orientations
T23 chain: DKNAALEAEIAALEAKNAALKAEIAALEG

4H3782-AA = molecular target: T24, 4H3782-AA; test: two-hybrid library CCmax; conditions: mean of both orientations
T24 chain: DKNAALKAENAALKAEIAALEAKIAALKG

4H1913-AA = molecular target: T25, 4H1913-AA; test: two-hybrid library CCmax; conditions: mean of both orientations
T25 chain: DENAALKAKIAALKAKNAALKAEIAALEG

4H741-bH = molecular target: T26, 4H741-bH; test: two-hybrid library CCNG1
T26 chain: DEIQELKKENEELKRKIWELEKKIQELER

4H2717-bH = molecular target: T27, 4H2717-bH; test: two-hybrid library CCNG1
T27 chain: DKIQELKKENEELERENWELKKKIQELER

4H2503-bH = molecular target: T28, 4H2503-bH; test: two-hybrid library CCNG1
T28 chain: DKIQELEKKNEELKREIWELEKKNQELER

4H348-bH = molecular target: T29, 4H348-bH; test: two-hybrid library CCNG1
T29 chain: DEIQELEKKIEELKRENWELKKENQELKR

4H2588-bH = molecular target: T30, 4H2588-bH; test: two-hybrid library CCNG1
T30 chain: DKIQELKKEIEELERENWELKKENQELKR

4H319-bH = molecular target: T31, 4H319-bH; test: two-hybrid library CCNG1
T31 chain: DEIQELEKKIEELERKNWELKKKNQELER

4H477-bH = molecular target: T32, 4H477-bH; test: two-hybrid library CCNG1
T32 chain: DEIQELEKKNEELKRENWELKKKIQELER

4H492-bH = molecular target: T33, 4H492-bH; test: two-hybrid library CCNG1
T33 chain: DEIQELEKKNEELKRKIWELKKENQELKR

4H40-bH = molecular target: T34, 4H40-bH; test: two-hybrid library CCNG1
T34 chain: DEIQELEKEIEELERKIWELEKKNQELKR

4H3057-bH = molecular target: T35, 4H3057-bH; test: two-hybrid library CCNG1
T35 chain: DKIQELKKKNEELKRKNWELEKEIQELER

4H2692-bH = molecular target: T36, 4H2692-bH; test: two-hybrid library CCNG1
T36 chain: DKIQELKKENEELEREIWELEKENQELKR

4H2473-bH = molecular target: T37, 4H2473-bH; test: two-hybrid library CCNG1
T37 chain: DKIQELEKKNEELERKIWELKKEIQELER

4H2839-bH = molecular target: T38, 4H2839-bH; test: two-hybrid library CCNG1
T38 chain: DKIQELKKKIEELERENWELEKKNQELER

4H3277-bH = molecular target: T39, 4H3277-bH; test: two-hybrid library CCNG1
T39 chain: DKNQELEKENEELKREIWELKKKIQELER

4H2915-bH = molecular target: T40, 4H2915-bH; test: two-hybrid library CCNG1
T40 chain: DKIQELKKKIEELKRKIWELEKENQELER

4H2438-bH = molecular target: T41, 4H2438-bH; test: two-hybrid library CCNG1
T41 chain: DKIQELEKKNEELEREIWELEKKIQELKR

4H338-bA = molecular target: T42, 4H338-bA; test: two-hybrid library CCNG1
T42 chain: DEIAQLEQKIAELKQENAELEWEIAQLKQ

P7SH = molecular target: T43, P7SH; test: two-hybrid library CCNG1
T43 chain: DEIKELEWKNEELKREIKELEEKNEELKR

interaction score (4H2903-AA): -1.74 | interaction score (4H464-AA): -1.48 | interaction score (4H1558-AA): -0.946 | interaction score (4H63-AA): -0.402 | interaction score (4H3049-AA): 0.754 | interaction score (4H2961-AA): 1.04 | interaction score (4H446-AA): -1.96 | interaction score (4H3414-AA): -1.31 | interaction score (4H1454-AA): -1.09 | interaction score (4H2774-AA): -1.09 | interaction score (4H2728-AA): -1.37 | interaction score (4H2621-AA): -0.876 | interaction score (4H3595-AA): 0.813 | interaction score (4H483-AA): -0.924 | interaction score (4H3969-AA): 2.05 | interaction score (4H341-AA): -1.24 | interaction score (4H380-AA): -1.14 | interaction score (4H2699-AA): -0.894 | interaction score (4H3939-AA): -1.25 | interaction score (4H2580-AA): -0.961 | interaction score (4H249-AA): -1.11 | interaction score (4H3629-AA): -1.38 | interaction score (4H3129-AA): -1.84 | interaction score (4H3782-AA): 0.615 | interaction score (4H1913-AA): -1.24
Binder: DENAALEAKNAALEAKIAALKAKIAALKG [4H1454-AA]

interaction score (4H741-bH): -0.318 | interaction score (4H2717-bH): 0.187 | interaction score (4H2503-bH): 0.644 | interaction score (4H348-bH): -0.861 | interaction score (4H2588-bH): -0.0625 | interaction score (4H319-bH): -1.85 | interaction score (4H477-bH): 0.358 | interaction score (4H492-bH): -0.644 | interaction score (4H40-bH): -0.00537 | interaction score (4H3057-bH): 1.41 | interaction score (4H2692-bH): 0.322 | interaction score (4H2473-bH): 1.01 | interaction score (4H2839-bH): 0.0743 | interaction score (4H3277-bH): -0.355 | interaction score (4H2915-bH): 1.73 | interaction score (4H2438-bH): -0.05
Binder: DKIQELEKKNEELEREIWELEKKIQELKR [4H2438-bH]

interaction score (4H741-bH): 0.417 | interaction score (4H2717-bH): -0.116 | interaction score (4H2588-bH): 0.98 | interaction score (4H319-bH): 0.617 | interaction score (4H477-bH): -0.292 | interaction score (4H492-bH): -1.5 | interaction score (4H40-bH): -0.884 | interaction score (4H3057-bH): 0.192 | interaction score (4H338-bA): 0.393 | interaction score (4H2692-bH): 0.605 | interaction score (4H2839-bH): 1.07 | interaction score (4H3277-bH): -0.69 | interaction score (4H2915-bH): 1.07 | interaction score (P7SH): -0.241
Binder: DKIQELKKEIEELERENWELKKENQELKR [4H2588-bH]
